From the supplement of paper PMC7125110 come the findings set out here.

B1: glmS ribozyme (parent)
chain: AUAAAAGCGCCAGAACUACAGAAAUGUAGUUGACGAGGAGGAGGUUUAUCGAAUUUUCGGCGGAUGCCUCCAAA

± gives the standard error. Fewer inactive variants are shown than the library holds.

Conditions in all cases: with glucosamine-6-phosphate
Data set [1] covers variants of B1. As to the kind of experiment: self-cleavage kobs at 40 uM GlcN6P; higher = faster cleavage; RNA array. Summed up: (§1)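 kcat and KM were obtained from weighted Michaelis–Menten fits across concentrations of kobs values. Those came from one- or two-exponential decay fits to per-tile medians normalised to baseline and to non-cleaving reference variants. The variants were barcoded ribozymes transcribed in situ by E. coli RNA polymerase on sequenced MiSeq chips and tracked through a hybridised Cy3 probe at 37 °C, with 40 μM to 10 mM glucosamine-6-phosphate in HEPES/KCl/Mg(OAc)2 buffer flowed in.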

The variants in data set [2] derive from B1. As to the kind of experiment: self-cleavage kobs at 10000 uM GlcN6P; higher = faster cleavage; RNA array. Summed up:
as §1

Variants of B1 are the subject of data set [3]. The data set is described as follows: self-cleavage kobs at 160 uM GlcN6P; higher = faster cleavage; RNA array. The method, boiled down: as §1
The variants in data set [4] derive from B1. The data set is described as follows: self-cleavage kobs at 640 uM GlcN6P; higher = faster cleavage; RNA array. The method, boiled down:
as §1

The variants in data set [5] derive from B1. As to the kind of experiment: self-cleavage kobs at 2500 uM GlcN6P; higher = faster cleavage; RNA array. The method, boiled down:
as §1

With AUAAAAGCGACAGAACUACAGAAAUGUAGUUGACGAGUAGGAGGUUUAUCGAAUUUUCAACAGUUCCGUCCAAA, in data set [1], the “self-cleavage kobs at 40 uM GlcN6P” value was found to be 0.000187 ± 6.6e-05 s⁻¹.

Regarding AUAAAAGGGCCAGAACUACAGAAAUGUAGUUGACGAGGCGGAGGUUUAUCGAAUGUUCUGCGGAUGCCUCCAAA, the “self-cleavage kobs at 40 uM GlcN6P” value in data set [1] was less than 1e-05 s⁻¹. In addition, the “self-cleavage kobs at 10000 uM GlcN6P” value in data set [2] was less than 1e-05 s⁻¹.

Consider AUAAAAGCGCCAGAACUACAGAAAUGUAGUUGACCAGGAGGAGGUUUAUCGAAUUUUCGGCGGGUGUCUCCAAA, for which the “self-cleavage kobs at 40 uM GlcN6P” value in data set [1] was less than 1e-05 s⁻¹. Also, the “self-cleavage kobs at 10000 uM GlcN6P” value in data set [2] was less than 1e-05 s⁻¹.

Take AUAAAAGCGCUAGGGCUACAGAAAUGUAGUUGACGAGGAGGAGGUUUAUCGAAUUUUCGGCGGAUGCCUCCAAA: the “self-cleavage kobs at 40 uM GlcN6P” value in data set [1] is 0.000235 ± 5.3e-05 s⁻¹. Also, the “self-cleavage kobs at 10000 uM GlcN6P” value in data set [2] is 0.0112 ± 0.0025 s⁻¹.

On to AUAAAAGCGCCAGAACUACAGAAAUGUAGUUGACGAGGAGGAGGUUUAUCGAAUAUUCGGGGGAUGCCUCCAAA, for which the “self-cleavage kobs at 40 uM GlcN6P” value in data set [1] is less than 1e-05 s⁻¹. The “self-cleavage kobs at 10000 uM GlcN6P” value in data set [2] is less than 1e-05 s⁻¹.

Consider AUAAACGCGCCAUAACUACAGAAAUGUAGUUGAGGAGGAGGAGGUUUAUCGAAUUUUCGCCGGAUGCCUCCAAA, for which the “self-cleavage kobs at 40 uM GlcN6P” value in data set [1] is less than 1e-05 s⁻¹.

As to AUAAAAGCGCCAGAACUACAGAAAUGUAGUUGACGAGGAGGUGGUUUAUCGAAUUUUCCGCGGAUGCCUCCAAA, the “self-cleavage kobs at 40 uM GlcN6P” value in data set [1] is less than 1e-05 s⁻¹. In addition, the “self-cleavage kobs at 160 uM GlcN6P” value in data set [3] is less than 1e-05 s⁻¹. In data set [4], the “self-cleavage kobs at 640 uM GlcN6P” value is less than 1e-05 s⁻¹. Besides, the “self-cleavage kobs at 2500 uM GlcN6P” value in data set [5] was less than 1e-05 s⁻¹. Further, the “self-cleavage kobs at 10000 uM GlcN6P” value in data set [2] was less than 1e-05 s⁻¹.

For the variant AUAAAAGCGCCAGAACUACAGAAAUGUAGUUGACGAGGAGGAAGUUUAUCGAAUUUUCGGUGGAUGCCUCAAAA, the “self-cleavage kobs at 40 uM GlcN6P” value in data set [1] is less than 1e-05 s⁻¹.

AUAAAAUCGCCAGUACUACAGAAAUGUAGUUGACGAGGAGGAGGUUUAUCGAAUCUUCGGCGUAUGCCUACAAA: in data set [1], the “self-cleavage kobs at 40 uM GlcN6P” value was less than 1e-05 s⁻¹. In data set [4], the “self-cleavage kobs at 640 uM GlcN6P” value is less than 1e-05 s⁻¹. For the same variant, the “self-cleavage kobs at 2500 uM GlcN6P” value in data set [5] was less than 1e-05 s⁻¹.

Regarding AUAAAAGCGCCAGAACUACAGAAAUGUAGUUGACGAGGAGGAGGUUUAUUGAAUUUUCGGCUGAUGCCUCCAAA, the “self-cleavage kobs at 40 uM GlcN6P” value in data set [1] is less than 1e-05 s⁻¹. In addition, the “self-cleavage kobs at 10000 uM GlcN6P” value in data set [2] is less than 1e-05 s⁻¹.

On to AUAAAAGCGCCAGACCUACAGAAAUGUAGUUGACGAGGAGGCGGUUUAUCGAAUUUUCGGCGGAUGCCUCCAAA, for which, in data set [1], the “self-cleavage kobs at 40 uM GlcN6P” value was less than 1e-05 s⁻¹. Also, the “self-cleavage kobs at 640 uM GlcN6P” value in data set [4] was less than 1e-05 s⁻¹. Besides, the “self-cleavage kobs at 10000 uM GlcN6P” value in data set [2] was less than 1e-05 s⁻¹.

Take AUAAAAGCGCCAGAACUACAGAAAUGUAGUUGACGAUGAGGUGGUUUAUCGAAUUUUCGGCGGAUGCCUCCAAA: the “self-cleavage kobs at 40 uM GlcN6P” value in data set [1] was less than 1e-05 s⁻¹. Besides, the “self-cleavage kobs at 160 uM GlcN6P” value in data set [3] is less than 1e-05 s⁻¹. The “self-cleavage kobs at 640 uM GlcN6P” value in data set [4] is less than 1e-05 s⁻¹.

Consider AUAAAAGCGCCAGAACUACAGAAAUGUAGUUGACGCGGAGGAGGUUUAUCGAAUUUUCAGCGGAUGACUCCAAA, for which, in data set [1], the “self-cleavage kobs at 40 uM GlcN6P” value was less than 1e-05 s⁻¹. Moreover, the “self-cleavage kobs at 10000 uM GlcN6P” value in data set [2] was less than 1e-05 s⁻¹.

In the case of AUAAAAGCGCCAGAACUACAGAAAUGUAGUUGACGAGGUGGAGGUUUAUCGAAAUUUCGGCGGAUGCCUCCAAA, in data set [1], the “self-cleavage kobs at 40 uM GlcN6P” value amounted to 0.000568 ± 6.6e-05 s⁻¹. The “self-cleavage kobs at 640 uM GlcN6P” value in data set [4] was determined as 0.00339 ± 0.00076 s⁻¹.

Consider AUAAAAGCGCCAGACCUACAGAAAUGUAGUUGACGAGAAGGAGGUUUAUCGAAUUUUCGGCGGAUGGCUCCAAA, for which the “self-cleavage kobs at 40 uM GlcN6P” value in data set [1] was less than 1e-05 s⁻¹.

For AUAAAAGCGCCAAAACUACAGAAAUGUAGUUGCCGAGGAGGAGGUUUAUAGAAUUUUCGGCGGAUGCCUCUAAA, the “self-cleavage kobs at 40 uM GlcN6P” value in data set [1] is less than 1e-05 s⁻¹. Besides, in data set [5], the “self-cleavage kobs at 2500 uM GlcN6P” value was less than 1e-05 s⁻¹.

Consider AUAAAAGCGCCGGAACUACAGAAAUGUAGUUGACGAGGAGGAGGUUUAUCGAAUUUUCGACGGAUGCCUCCAAA, for which the “self-cleavage kobs at 40 uM GlcN6P” value in data set [1] is less than 1e-05 s⁻¹. For the same variant, in data set [3], the “self-cleavage kobs at 160 uM GlcN6P” value was less than 1e-05 s⁻¹. Further, the “self-cleavage kobs at 2500 uM GlcN6P” value in data set [5] was less than 1e-05 s⁻¹. Also, the “self-cleavage kobs at 10000 uM GlcN6P” value in data set [2] is less than 1e-05 s⁻¹.
